# Results reported in the RNAGym collection of RNA variant scans (doi:10.7554/elife.80360).
# B1: CPEB3 Ribozyme (parent)
# chain: GGGGGCCACAGCAGAAGCGUUCACGUCGCGGCCCCUGUCAGAUUCUGGUGAAUCUGCGAAUUCUGCUGU
# Variants of: B1
# Test: self-cleavage, relative activity (ratio to wild type); higher = more cleavage; co-transcriptional
row,Variant,self-cleavage
1,C18A C34U,0.16
2,C18A C35A,0.155
3,C18A C54A,0.162
4,C18A C57G,0.114
5,C18A C57U,0.157
6,C18A C63A,0.119
7,C18A C66A,0.13
8,C18A C66G,0.147
9,C18A C66U,0.153
10,C18A G19A,0.135
11,C18A G25A,0.163
12,C18A G37C,0.213
13,C18A G41A,0.156
14,C18A G48A,0.227
15,C18A G48C,0.146
16,C18A G56A,0.156
17,C18A G56U,0.133
18,C18A G58C,0.193
19,C18A G65C,0.217
20,C18A G68U,0.264
21,C18A U20A,0.193
22,C18A U20G,0.0591
23,C18A U26C,0.17
24,C18A U26G,0.118

row,Variant,self-cleavage
1,C18A U36G,0.145
2,C18A U38G,0.212
3,C18A U43C,0.161
4,C18A U44C,0.106
5,C18A U46C,0.228
6,C18A U49A,0.16
7,C18A U49C,0.195
8,C18A U53A,0.188
9,C18A U53G,0.17
10,C18A U55C,0.21
11,C18A U61C,0.158
12,C18A U62A,0.133
13,C18A U62C,0.141
14,C18A U62G,0.152
15,C18A U64A,0.108
16,C18A U64C,0.14
17,C18A U69C,0.517
18,C18G A23G,0.0901
19,C18G A23U,0.22
20,C18G A40G,0.122
21,C18G A42C,0.124
22,C18G A51G,0.184
23,C18G A51U,0.207
24,C18G A52C,0.181

row,Variant,self-cleavage
1,C18G A52G,0.244
2,C18G A59C,0.149
3,C18G C22U,0.192
4,C18G C24G,0.107
5,C18G C24U,0.106
6,C18G C27U,0.0906
7,C18G C29G,0.187
8,C18G C35A,0.0628
9,C18G C39A,0.184
10,C18G C39G,0.101
11,C18G C39U,0.196
12,C18G C54G,0.0613
13,C18G C54U,0.15
14,C18G C57G,0.17
15,C18G C63G,0.104
16,C18G C66G,0.0954
17,C18G C66U,0.215
18,C18G G19C,0.0934
19,C18G G25A,0.174
20,C18G G28A,0.133
21,C18G G37A,0.119
22,C18G G47C,0.0572
23,C18G G47U,0.177
24,C18G G50C,0.201

row,Variant,self-cleavage
1,C18G G56A,0.107
2,C18G G56C,0.101
3,C18G G58A,0.104
4,C18G G65U,0.161
5,C18G G68U,0.311
6,C18G U20A,0.0787
7,C18G U21A,0.217
8,C18G U38A,0.158
9,C18G U44C,0.125
10,C18G U44G,0.169
11,C18G U46G,0.226
12,C18G U49A,0.259
13,C18G U55G,0.175
14,C18G U61A,0.223
15,C18G U62G,0.173
16,C18G U67G,0.229
17,C18U A40G,0.742
18,C18U A40U,0.378
19,C18U A42U,0.687
20,C18U A51C,0.771
21,C18U A59C,0.32
22,C18U A59U,0.445
23,C18U A60C,0.288
24,C18U A60U,0.318

row,Variant,self-cleavage
1,C18U C22A,0.0833
2,C18U C24U,0.4
3,C18U C29G,0.132
4,C18U C32G,0.213
5,C18U C33A,0.278
6,C18U C33G,0.304
7,C18U C34G,0.426
8,C18U C34U,0.919
9,C18U C35U,0.687
10,C18U C39G,0.491
11,C18U C45G,0.778
12,C18U C45U,0.877
13,C18U C57U,0.3
14,C18U C66G,0.341
15,C18U G19A,0.144
16,C18U G28C,0.174
17,C18U G28U,0.206
18,C18U G30A,0.282
19,C18U G37U,0.198
20,C18U G41A,0.331
21,C18U G41C,0.211
22,C18U G41U,0.44
23,C18U G48A,0.948
24,C18U G50C,0.803

row,Variant,self-cleavage
1,C18U G50U,0.906
2,C18U G56C,0.341
3,C18U G56U,0.578
4,C18U G58C,0.852
5,C18U G65U,0.245
6,C18U U20G,0.28
7,C18U U26A,0.669
8,C18U U36G,0.19
9,C18U U43A,0.549
10,C18U U49A,0.914
11,C18U U49C,0.864
12,C18U U53A,0.632
13,C18U U53G,0.633
14,C18U U55G,0.39
15,C18U U62G,0.494
16,C18U U64A,0.351
17,C18U U64C,0.383
18,C18U U67G,0.922
19,C18U U69A,0.944
20,G19A A40G,0.17
21,G19A A42C,0.13
22,G19A A42G,0.166
23,G19A A51C,0.161
24,G19A A51G,0.172

row,Variant,self-cleavage
1,G19A A59U,0.169
2,G19A A60G,0.161
3,G19A C22A,0.104
4,G19A C29A,0.159
5,G19A C32G,0.153
6,G19A C32U,0.216
7,G19A C33G,0.172
8,G19A C34G,0.181
9,G19A C35A,0.181
10,G19A C35U,0.188
11,G19A C39G,0.149
12,G19A C45A,0.121
13,G19A C45U,0.167
14,G19A C54G,0.159
15,G19A C63U,0.116
16,G19A G31A,0.17
17,G19A G37A,0.142
18,G19A G37C,0.128
19,G19A G47A,0.122
20,G19A G47U,0.12
21,G19A G48C,0.188
22,G19A G50U,0.133
23,G19A G56U,0.155
